Experiments:
[1] = tested on: PAF mediated lung injury; test: Guinea pig model of ARDS (PAF infusion, BAL protein); type: in vivo
Procedure: Based on the above observations, an ARDS model in guinea pigs was developed. A cannula is placed into the jugular vein of anaesthetized male Hartly guinea pigs (approximately 350-400 grams) and PAF diluted in a 500 μl volume of phosphate buffered saline with 0.25% bovine serum albumin as a carrier (PBS-BSA) is infused over a 15 minute period of time at a total dosage ranging from 100-400 ng/kg. At various intervals following PAF infusion, animals are sacrificed and lung tissue is collected. In guinea pigs infused with PAF, dose dependent lung damage and inflammation is clearly evident by 15 minutes and continues to be present at 60 minutes. Neutrophils and red blood cells are present in the alveolar spaces of PAF treated guinea pigs but absent in control or sham infused animals. Evidence of epithelial cell damage is also evident and reminiscent of hyaline membrane formation in human ARDS patients.
Groups of guinea pigs were pretreated with either PAF-AH (2000 units in 500 μl) or 500 μl of the PAF-AH buffer only. Fifteen minutes later these guinea pigs were infused with 400 ng/kg PAF in a 500 μl volume, infused over a 15 minute period. In addition, a sham group of guinea pigs was infused with 500 μl of PBS-BSA. […] To determine protein concentration in the BAL, samples were diluted 1:10 in saline and the OD 280 was determined.

[2] = Plasma PAF-AH activity in rats of the NEC experiments; type: in vivo, rat
Procedure: The plasma PAF-AH activities were also determined in the rats utilized in the experiment described above. PAF-AH activity was determined as follows. Prior to the tail vein injection, blood samples were obtained. Subsequently blood samples were obtained from the vena cava just prior to the injection of PAF and at the time of sacrifice. Approximately 50 μl of blood was collected in heparinized capillaries. The plasma was obtained following centrifugation (980×g for 5 minutes). The enzyme was assayed as previously described by Yasuda and Johnston, Endocrinology, 130:708-716 (1992).
In order to determine if the protection against NEC in rats was dose dependent, animals were treated with increasing doses of PAF-AH 15 minutes prior to PAF administration. Initially, PAF-AH, ranging from 25.5 to 25,500 units were administered into the tail vein of rats. PAF (0.4 μg in 0.2 ml of BSA-saline) was subsequently injected into the abdominal aorta 15 minutes after the administration of PAF-AH. The small intestine was removed and examined for NEC development 2 hours after PAF administration. Plasma PAF-AH activity was determined prior to the exogenous administration of the enzyme, and 15 minutes and 21/4 hours after PAF-AH administration. The results are the mean of 2-5 animals in each group.

[3] = type: biochemical
From the text: The most remarkable property of the PAF acetylhydrolase is its marked specificity for substrates with a short residue at the sn-2 position of the substrate. This strict specificity distinguishes PAF acetylhydrolase from other forms of PLA2. […] Native plasma PAF-AH has several other properties that distinguish it from other phospholipases including calcium-independence and resistance to compounds that modify sulfhydryl groups or disrupt disulfides.

[4] = tested on: antigen-induced eosinophil recruitment; test: Antigen-induced eosinophil recruitment to trachea of OVA-sensitized mice; type: in vivo, mouse; details: 750 units IV 30 minutes before and 24 hours after aerosolized OVA; 48 hours
Procedure: The accumulation of eosinophils in the airway is a characteristic feature of late phase immune responses which occur in asthma, rhinitis and eczema. BALB/c mice (Charles River) were sensitized by two intraperitoneal injections consisting of 1 μg of ovalbumin (OVA) in 4 mg of aluminum hydroxide (Imject alum, Pierce Laboratories, Rockford, Ill.) given at a 2 week interval. Fourteen days following the second immunization, the sensitized mice were challenged with either aerosolized OVA or saline as a control.
Prior to challenge mice were randomly placed into four groups, with four mice/group. Mice in groups 1 and 3 were pretreated with 140 μl of control buffer consisting of 25 mM tris, 0.5M NaCl, 1 mM EDTA and 0.1% Tween 80 given by intravenous injection. Mice in groups 2 and 4 were pretreated with 750 units of PAF-AH (activity of 5,500 units/ml given in 140 μl of PAF-AH buffer). Thirty minutes following administration of PAF-AH or buffer, mice in groups 1 and 2 were exposed to aerosolized PBS as described below, while mice in groups 3 and 4 were exposed to aerosolized OVA. Twenty-four hours later mice were treated a second time with either 140 μl of buffer (groups 1 and 3) or 750 units of PAF-AH in 140 μl of buffer (groups 2 and 4) given by intravenous injection.
Eosinophil infiltration of the trachea was induced in the sensitized mice by exposing the animals to aerosolized OVA. […]

[5] = 25,500 units IV, 21/4 hours after injection

B1: PAF-AH: Recombinant human plasma platelet-activating factor acetylhydrolase (beginning at Ile42 of SEQ ID NO:8) expressed in E. coli (protein, UniProt Q13093 22-441, looked up)
Platelet-activating factor …: FDWQYINPVAHMKSSAWVNKIQVLMAAASFGQTKIPRGNGPYSVGCTDLMFDHTNKGTFLRLYYPSQDNDRLDTLWIPNKEYFWGLSKFLGTHWLMGNILRLLFGSMTTPANWNSPLRPGEKYPLVVFSHGLGAFRTLYSAIGIDLASHGFIVAAVEHRDRSASATYYFKDQSAAEIGDKSWLYLRTLKQEEETHIRNEQVRQRAKECSQALSLILDIDHGKPVKNALDLKFDMEQLKDSIDREKIAVIGHSFGGATVIQTLSEDQRFRCGIALDAWMFPLGDEVYSRIPQPLFFINSEYFQYPANIIKMKKCYSPDKERKMITIRGSVHQNFADFTFATGKIIGHMLKLKGDIDSNVAIDLSNKASLAFLQKHLGLHKDFDQWDCLIEGDDENLIPGTNINTTNQHIMLQNSSGIEKYN
In the case of B1, the “BAL fluid protein concentration” value ([1]; 2000 units 15 minutes before 400 ng/kg PAF infusion) is reported as 1.13 ± 0.25 mg/mL, the “protection against PAF mediated lung injury” value ([1]; 2000 units pretreatment) is reported as “completely protect” and the “plasma PAF-AH activity after 15 minutes” value ([2]; 2040 units IV) is reported as 363 units per ml of plasma. The “increase of plasma PAF-AH activity over basal levels” value ([2]; 2040 units IV, 15 minutes) was “five-fold increase over basal levels”, the “plasma PAF-AH activity at time of sacrifice, groups 2 and 4” value ([2]; 25,500 units IV, 21/4 hours after PAF-AH injection) was 1855±257 units and the “plasma PAF-AH activity at time of sacrifice, Group 2” value [2, 5] was 1771±308. For the same molecule, the “plasma PAF-AH activity at time of sacrifice, Group 4” value [2, 5] was 1939±478, the “plasma PAF-AH activity after 15 minutes, group 2” value ([2]; 25,500 units IV, BSA-saline group) was 2249±341 units (1 unit equals 1 nmoles×min^-1 ×ml^-1 plasma) and the “plasma PAF-AH activity after 15 minutes, group 4” value ([2]; 25,500 units IV, PAF group) was 2494±623 units (1 unit equals 1 nmoles×min^-1 ×ml^-1 plasma). The “resultant plasma enzyme activity” value ([2]; less than 1,020 total units administered) was ≤ 160, the “degradation of glutaroylPC (oxidized phospholipid)” value [3] was “rapidly degraded” and the “eosinophils in submucosal tissue of trachea” value [4] was “very few eosinophils in the submucosal tissue”.

Reference: US5847088A, “Antibodies specific for platelet-activating factor acetylhydrolase” (ICOS Corporation, priority 1995, dated 1998)
